Reference: patent publication US7838294B2, “Inhibitors of the JNK signal transduction pathway and methods of use” (University of Massachusetts, priority 1997, dated 2010)

Columns and labels:
ERK2 [1] = experiment: Immune complex protein kinase assay: ERK, substrate MBP; assay type: biochemical, Chinese hamster; conditions: in vitro, 3 μg myelin basic protein
Protocol: (§1) To test whether JIP-1 competes with Jun and ATF2 for interaction with JNK, the effect of JIP-1 on transcription factor-mediated phosphorylation of exogenous substrates was analyzed using an in vitro protein kinase assay. In these experiments, Chinese hamster ovary (CHO) cells were serum-starved for one hour. In some experiments, the cells were treated with 10 ng/ml mouse interleukin 1 or 100 nM phorbol myristic acetate. JNK, p38, and ERK protein kinase activity was measured in an immune complex kinase assay using 3 μg of the substrates GST-Jun, GST-ATF2, and myelin basic protein (MBP), respectively. Protein kinase assays were performed using 40 μl 20 mM Hepes (pH 7.4), 20 mM MgCl2, 20 mM β-glycerophosphate, 2 mM dithiothreitol, 0.1 mM sodium orthovanadate, 50 μM [γ-^32P]ATP (10 Ci/mmol). After incubation for 30 minutes at 30° C., phosphorylation of substrates was analyzed by polyacrylamide gel electrophoresis and autoradiography.

JNK1 = biological target: T1, JNK1 (Homo sapiens, UniProt P45983); experiment: GST-fusion pull-down from cell lysates, Flag immunoblot: JNK1; assay type: binding; conditions: GST pull-down, Flag immunoblot
T1 construct: expressed in transfected cells
Protocol: (§2) To test whether JIP-1 binding to JNK is also isoform-dependent, a binding assay was utilized. Cell lysates (1 ml in TLB) containing JNK1, JNK2, or p38 MAP kinase, each tagged with the Flag epitope, were incubated with 5 μg GST-fusion proteins pre-bound to 10 μl glutathione-Sepharose. The GST fusion proteins used contain residues 127-202 (SEQ ID NO:15), 203-281 (SEQ ID NO:16), 164-240 (SEQ ID NO:17), or 127-281 (SEQ ID NO:4) of JIP-1. The GST-ATF2 fusion protein contains residues 1-109 of ATF2, and the GST-Jun fusion protein contains residues 1-79 of c-Jun. After incubation for one hour at 4° C. and three washes with TLB, bound proteins were detected by protein immunoblot analysis with the M2 monoclonal antibody, which is specific for the Flag epitope. Dérijard, et al., supra; Sluss et al., supra; Gupta et al., supra. […] This finding is consistent with the results of previous studies. In contrast, when GST-JIP-1 fusion proteins containing residues 127-202 or 127-281 of JIP-1 were tested in the assay, these proteins bound both JNK1 and JNK2.
The GST-JIP-1 fusion proteins containing various portions of the JIP-1 gene were used to define regions of JIP-1 that are required for JNK interaction. A GST-JIP-1 fusion protein containing residues 127-281 of JIP-1 bound both JNK1 and JNK2.
To more precisely define the JIP-1 sequence required for JNK binding activity, additional […] fusion proteins were constructed. These fusion proteins contained residues 135-202 (SEQ ID NO:18), 144-202 (SEQ ID NO:19), 154-202 (SEQ ID NO:20), 164-202 (SEQ ID NO:21), 127-143 (SEQ ID NO:22), 127-153 (SEQ ID NO:23), or 127-163 (SEQ ID NO:24) of JIP-1. Proteins containing residues 127-202, 135-202, 144-202, […], and 127-163 all bound both JNK1 and JNK2. Thus, JIP-1 residues 144-163 are important for the interaction of JIP-1 with JNK.

ERK2 [2] = biological target: ERK2 (Homo sapiens, UniProt P28482); experiment: Co-immunoprecipitation of JIP-1 with ERK2 (specificity control); assay type: binding; conditions: control experiment
[3] = system: c-Jun transcriptional activity; experiment: GAL4 luciferase reporter assay in CHO cells: GAL4-c-Jun; assay type: cell-based, Chinese hamster; conditions: FIG. 4B
Protocol: In these experiments, CHO cells were cotransfected with constructs encoding the transcription factors and JIP-1 using previously described methods. Dérijard et al., supra; Sluss et al., supra; Gupta et al., supra. A luciferase reporter plasmid was used to monitor the expression of the transcription factors. Transfection efficiency was determined using a β-galactosidase expression vector. Constructs used in these experiments included GAL4 fusions with the c-myc, Sp1 and VP16 activation domains (described in Whitmarsh et al., Science, 269:403 (1995); Davis, Science, 269:403 (1995); Gille et al., Curr. Biol., 5:1191 (1995)). […]
(§3) Transfected cells were activated by treatment with 10% (v/v) fetal calf serum, and luciferase and β-galactosidase activities were measured in cell lysates at 48 hours post-transfection. The data are presented as the ratio of luciferase activity (light units) to β-galactosidase activity (OD units) measured in the cell extracts (mean±SEM (n=3)), and are normalized to the luciferase activity detected in the absence of JBD (FIGS. 4A and 4B) or ATF2 (FIG. 4C).

[4] = system: ATF2 transcriptional activity; experiment: GAL4 luciferase reporter assay in CHO cells: GAL4-ATF2; assay type: cell-based, Chinese hamster
Protocol: In these experiments, CHO cells were cotransfected with constructs encoding the transcription factors and JIP-1 using previously described methods. Dérijard et al., supra; Sluss et al., supra; Gupta et al., supra. A luciferase reporter plasmid was used to monitor the expression of the transcription factors. Transfection efficiency was determined using a β-galactosidase expression vector. Constructs used in these experiments included GAL4 fusions with the c-myc, Sp1 and VP16 activation domains (described in Whitmarsh et al., Science, 269:403 (1995); Davis, Science, 269:403 (1995); Gille et al., Curr. Biol., 5:1191 (1995)). Other constructs used were GAL4-c-Jun, in which GAL4 is fused to c-Jun; GAL4-c-Jun (S63A/S73A), in which GAL4 is fused to a mutant c-Jun in which the serines at positions 63 and 73 have been changed to alanines; GAL4-ATF2, in which GAL4 is fused to wild type ATF2 (ATF2(Thr-69, 71)); GAL4-ATF2 (T69A/T71A) (ATF2(Ala-69/71)), in which GAL4 has been fused to a mutant ATF2 in which the […] at positions 69 and 71 have been changed to alanines; GAL4-Elk-1, in which GAL4 has been fused to Elk-1; and GAL4-Elk-1 (S383A), in which GAL4 has been fused to a mutant Elk-1 in which the serine at position 383 has been changed to an alanine. Gupta et al., EMBO J, 15:2760-2770 (1996); Raingeaud et al., Mol. Cell. Biol., 16:1247-1255 (1996); Whitmarsh et al. Science, 269:403-407 (1995).
Insertional overlapping PCR, described in detail in Ho, supra, was used to construct expression vectors for the JNK binding domain (JBD; amino acid residues 127-281) of JIP-1 and for a mutant JIP-1 lacking the SH3 (amino acid residues 491-540) domain.
as §3

p38 MAP kinase = biological target: T2, p38 MAP kinase (Homo sapiens, UniProt Q16539); experiment: GST-fusion pull-down from cell lysates, Flag immunoblot: p38 MAP kinase; assay type: binding; conditions: control experiment, Flag-p38 lysate
T2 construct: expressed in transfected cells
Protocol: as §2

JNK = experiment: Immune complex protein kinase assay: JNK, substrate GST-Jun; assay type: biochemical, Chinese hamster; conditions: in vitro, 3 μg GST-Jun, 30 minutes at 30° C.
Protocol: as §1

T1 sequence (P45983 1-384 isoform P45983-2): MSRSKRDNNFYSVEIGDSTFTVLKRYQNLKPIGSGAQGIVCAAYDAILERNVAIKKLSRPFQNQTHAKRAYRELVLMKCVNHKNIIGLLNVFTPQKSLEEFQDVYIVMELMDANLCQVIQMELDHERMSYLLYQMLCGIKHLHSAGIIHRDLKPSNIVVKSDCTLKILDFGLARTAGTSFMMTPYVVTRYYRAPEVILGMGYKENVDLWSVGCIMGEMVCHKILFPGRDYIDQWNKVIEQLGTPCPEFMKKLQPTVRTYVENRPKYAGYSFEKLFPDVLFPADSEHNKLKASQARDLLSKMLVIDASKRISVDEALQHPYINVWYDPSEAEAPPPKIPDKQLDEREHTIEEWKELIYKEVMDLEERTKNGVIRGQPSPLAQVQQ
T2 sequence (Q16539 whole entry, the tested form may be a part): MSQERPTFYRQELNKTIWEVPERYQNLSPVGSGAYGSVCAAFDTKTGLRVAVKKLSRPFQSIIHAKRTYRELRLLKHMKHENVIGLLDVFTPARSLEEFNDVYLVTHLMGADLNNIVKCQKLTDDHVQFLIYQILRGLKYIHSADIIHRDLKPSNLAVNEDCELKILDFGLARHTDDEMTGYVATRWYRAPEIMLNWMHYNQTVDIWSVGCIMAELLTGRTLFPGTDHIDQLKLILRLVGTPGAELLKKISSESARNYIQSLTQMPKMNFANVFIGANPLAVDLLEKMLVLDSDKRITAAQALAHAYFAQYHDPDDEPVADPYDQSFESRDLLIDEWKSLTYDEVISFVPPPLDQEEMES
ERK2 (Homo sapiens, UniProt P28482), sequence (P28482 whole entry, species assumed, the tested form may be a part): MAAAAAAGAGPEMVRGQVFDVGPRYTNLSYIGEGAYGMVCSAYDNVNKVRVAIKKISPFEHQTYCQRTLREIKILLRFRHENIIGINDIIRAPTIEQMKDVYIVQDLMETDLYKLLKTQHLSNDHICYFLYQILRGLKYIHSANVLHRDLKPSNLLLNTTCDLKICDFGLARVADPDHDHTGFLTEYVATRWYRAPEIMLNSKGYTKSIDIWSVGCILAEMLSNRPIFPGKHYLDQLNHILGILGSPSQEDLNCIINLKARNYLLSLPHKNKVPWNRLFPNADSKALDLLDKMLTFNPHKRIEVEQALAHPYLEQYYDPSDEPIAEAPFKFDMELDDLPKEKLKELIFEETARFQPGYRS

B1: JIP-1: 660 amino acid murine cytoplasmic protein that specifically binds JNK (protein)
chain: MAERESGLGGGAASPPAASPFLGLHIASPPNFRLTHDISLEEFEDEDLSEITDECGISLQCKDTLSLRPPRAGLLSAGSSGSAGSRLQAEMLQMDLIDAAGDTPGAEDDEEEEDDELAAQRPGVGPPKAESNQDPAPRSQGQGPGTGSGDTYRPKRPTTLNLFPQVPRSQDTLNNNSLGKKHSWQDRVSRSSSPLKTGEQTPPHEHICLSDELPPQGSPVPTQDRGTSTDSPCRRSAATQMAPPSGPPATAPGGRGHSHRDRIHYQADVRLEATEEIYLTPVQRPPDPAEPTSTFMPPTESRMSVSSDPDPAAYSVTAGRPHPSISEEDEGFDCLSSPERAEPPGGGWRGSLGEPPPPPRASLSSDTSALSYDSVKYTLVVDEHAQLELVSLRPCFGDYSDESDSATVYDNCASASSPYESAIGEEYEEAPQPRPPTCLSEDSTPDEPDVHFSKKFLNVFMSGRSRSSSAESFGLFSCVINGEEHEQTHRAIFRFVPRHEDELELEVDDPLLVELQAEDYWYEAYNMRTGARGVFPAYYAIEVTKEPEHMAALAKNSCVLEISVRGVKIGVKADDALEAKGNKCSHFFQLKNISFCGYHPKNNKYFGFITKHPADHRFACHVFVSEDSTKALAESVGRAFQQFYKQFVEYTCPTEDIYLE
phosphorylation of substrate by ERK2 (ERK2 [1]): no significant change | binding of JNK compared with binding of JNK to ATF2 or c-Jun (JNK1): significantly greater | co-immunoprecipitation of JIP-1 with ERK2 (ERK2 [2]): did not co-immunoprecipitate | basal transcriptional activity of c-Jun mutated at JNK phosphorylation sites ([3]; GAL4-c-Jun (S63A/S73A)): not markedly inhibited | c-Jun transcriptional activity ([3]; wild type GAL4-c-Jun, CHO cells): Significant inhibition | basal transcriptional activity of ATF2 mutated at JNK phosphorylation sites ([4]; GAL4-ATF2 (T69A/T71A), FIG. 4B): not markedly inhibited | JNK-regulated gene expression ([4]; GAL4-ATF2 reporter, CHO cells, FIG. 4C): inhibition | ATF2 transcriptional activity ([4]; wild type GAL4-ATF2, CHO cells, FIG. 4B): Significant inhibition | binding to p38 MAP kinase (p38 MAP kinase): did not bind | phosphorylation of c-Jun by JNK (JNK): markedly inhibited
